B1: PLD5 (parent)
chain: KRTYWPDLDAKIREALVLRSVRVR

Variants of: B1
Assay: protein stability index of a GFP-peptide fusion (GPS, HEK-293T) (PSI 1-6); higher = more stable
Details: c terminus: a fixed tail appended
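Also: lentivirally expressed fusions sorted by FACS into six bins by GFP to DsRed ratio, PSI derived from sequencing read proportions per bin multiplied by bin number.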

Row | Variant | protein stability index
1 | KRTYWPDLDAKIREASVLRSVRVR | 2.51
2 | KRTYWPDLDAKIREAPVLRSVRVR | 2.02
3 | KRTYWPDLDAKIREAGVLRSVRVR | 1.31
4 | KRTYWPDLDAKIREANVLRSVRVR | 2.61
5 | KRTYWPDLDAKIREAWVLRSVRVR | 3.86
6 | KRTYWPDLDAKIREADVLRSVRVR | 2.8
7 | KRTYWPDLDAKIREAVVLRSVRVR | 2.53
8 | KRTYWPDLDAKIREAIVLRSVRVR | 1.95
9 | KRTYWPDLDAKIREAHVLRSVRVR | 2.94
10 | KRTYWPDLDAKIREAYVLRSVRVR | 2.06
11 | KRTYWPDLDAKIREALVLRSVRVN | 1.62
12 | KRTYWPDLDAKIREALVLRSVRVF | 2.13
13 | KRTYWPDLDAKIREALVLRSVRVL | 1.77
14 | KRTYWPDLDAKIREALVLRSVRVE | 1.94
15 | KRTYWPDLDAKIREALVLRSVRVS | 1.97
16 | KRTYWPDLDAKIREALVLRSVRVY | 2.74
17 | KRTYWPDLDAKIREALVLRSVRVK | 1.08
18 | KRTYWPDLDAKIREALVLRSVRVM | 1.68
19 | KRTYWPDLDAKIREALVLRSVRVD | 2.27
20 | KRTYWPDLDAKIREALVLRSVRVT | 1.52
21 | KRTYWPDLDAKIREALVLRSVRVQ | 3.34
22 | KRTYWPDLDAKIREALVLRSVRVH | 1.74
23 | KRTYWPDLDAKIREALVLRSVRVI | 2.32
24 | KRTYWPDLDAKIREALVLRSVRVP | 2.01

Row | Variant | protein stability index
25 | KRTYWPDLDAKIREALVLRSVRVA | 1.53
26 | KRTYWPDLDAKIREALVLRSVRVC | 2.52
27 | KRTYWPDLDAKINEALVLRSVRVR | 1.61
28 | KRTYWPDLDAKIMEALVLRSVRVR | 1.54
29 | KRTYWPDLDAKIKEALVLRSVRVR | 1.9
30 | KRTYWPDLDAKICEALVLRSVRVR | 2.29
31 | KRTYWPDLDAKIGEALVLRSVRVR | 1.89
32 | KRTYWPDLDAKIQEALVLRSVRVR | 1.28
33 | KRTYWPDLDAKIAEALVLRSVRVR | 1.3
34 | KRTYWPDLDAKIVEALVLRSVRVR | 2.31
35 | KRTYWPDLDAKISEALVLRSVRVR | 1.43
36 | KRTYWPDLDAKIPEALVLRSVRVR | 1.79
37 | KRTYWPDLDAKIYEALVLRSVRVR | 1.65
38 | KRTYWPDLDAKIHEALVLRSVRVR | 2.6
39 | KRTYWPDLDAKYREALVLRSVRVR | 1.29
40 | KRTYWPDLDAKKREALVLRSVRVR | 2.41
41 | KRTYWPDLDAKQREALVLRSVRVR | 2.54
42 | KRTYWPDLDAKEREALVLRSVRVR | 2.76
43 | KRTYWPDLDAKTREALVLRSVRVR | 2.7
44 | KRTYWPDLDAKRREALVLRSVRVR | 2.78
45 | KRTYWPDLDAKCREALVLRSVRVR | 2.29
46 | KRTYWPDLDAKHREALVLRSVRVR | 2.19
47 | KRTYWPDLDAKMREALVLRSVRVR | 2.38
48 | KRTYWPDLDAKLREALVLRSVRVR | 1.81

Row | Variant | protein stability index
49 | KRTYWPDLDAKDREALVLRSVRVR | 1.43
50 | KRTYWPDLDAKFREALVLRSVRVR | 1.93
51 | KRTYWPDLDAKVREALVLRSVRVR | 2.3
52 | KRTYWPDLDAKAREALVLRSVRVR | 2.01
53 | KRTYWPDLDAKIREALVLRSVRFR | 1.9
54 | KRTYWPDLDAKIREALVLRSVRPR | 3.22
55 | KRTYWPDLDAKIREALVLRSVRCR | 1.61
56 | KRTYWPDLDAKIREALVLRSVRIR | 1.96
57 | KRTYWPDLDAKIREALVLRSVRQR | 2.12
58 | KRTYWPDLDAKIREALVLRSVRTR | 1.88
59 | KRTYWPDLDAKIREALVLRSVRAR | 1.93
60 | KRTYWPDLDAKIREALVLRSVRER | 1.64
61 | KRTYWPDLDAKIREALVLRSVRYR | 1.74
62 | KRTYWPDLDAKIREALVLRSVRLR | 1.03
63 | KRTYWPDLDAKIREALVLRSVRNR | 2.54
64 | KRTYWPDLDAKIREALVLRSVRDR | 2.35
65 | KRTYWPDLDAKIREALVLRSVRWR | 1.78
66 | KRTYWPDLDAKIREALVLRSVRMR | 3.02
67 | KRTYWPDLDAKIREALVLRSVRHR | 2.1
68 | KRTYWPDLDAKIREALVLRSVRKR | 1.99
69 | KRTYWPDLDAKIREALVLRNVRVR | 1.77
70 | KRTYWPDLDAKIREALVLRQVRVR | 2.04
71 | KRTYWPDLDAKIREALVLRRVRVR | 2
72 | KRTYWPDLDAKIREALVLRKVRVR | 1.48

Row | Variant | protein stability index
73 | KRTYWPDLDAKIREALVLRTVRVR | 1.96
74 | KRTYWPDLDAKIREQLVLRSVRVR | 2.04
75 | KRTYWPDLDAKIREYLVLRSVRVR | 2.11
76 | KRTYWPDLDAKIREPLVLRSVRVR | 1.67
77 | KRTYWPDLDAKIREWLVLRSVRVR | 1.62
78 | KRTYWPDLDAKIRENLVLRSVRVR | 1.51
79 | KRTYWPDLDAKIRETLVLRSVRVR | 1.72
80 | KRTYWPDLDAKIREKLVLRSVRVR | 1.9
81 | KRTYWPDLDAKIREVLVLRSVRVR | 1.04
82 | KRTYWPDLDAKIREELVLRSVRVR | 2.26
83 | KRTYWPDLDATIREALVLRSVRVR | 2.42
84 | KRTYWPDLDAPIREALVLRSVRVR | 2.14
85 | KRTYWPDLDAYIREALVLRSVRVR | 1.99
86 | KRTYWPDLDAEIREALVLRSVRVR | 2.17
87 | KRTYWPDLDAMIREALVLRSVRVR | 1.04
88 | KRTYWPDLDADIREALVLRSVRVR | 2.29
89 | KRTYWPDLDARIREALVLRSVRVR | 1.47
90 | KRTYWPDLDAAIREALVLRSVRVR | 1.42
91 | KRTYWPDLDAHIREALVLRSVRVR | 1.29
92 | KRTYWPDLDAKIREALVNRSVRVR | 2.45
93 | KRTYWPDLDAKIREALVIRSVRVR | 1.64
94 | KRTYWPDLDAKIREALVTRSVRVR | 1.71
